Experiment in all cases: SPR; BIAcore T100; scFv-His10-CLAMP (150 nM) captured on ePDZ-b1 affinity clamp immobilised on a CM5 chip; purified SHC1 injected at increasing concentrations, 30 ul/min; PBS with 0.05% Tween 20; global fit, 1:1 interaction model
For experiment [1], the target named is anti-SHC1 scFv 72_1A10, His10-CLAMP-tagged.
Experiment [2] has as its target anti-SHC1 scFv 72_2B01, His10-CLAMP-tagged.
Experiment [3] deals with six of the eight chain-shuffled derivatives (positive in immunoprecipitation), as measured by SPR.

anti-SHC1 scFv 72_1A10, His10-CLAMP-tagged, sequence (heavy, as listed by the source): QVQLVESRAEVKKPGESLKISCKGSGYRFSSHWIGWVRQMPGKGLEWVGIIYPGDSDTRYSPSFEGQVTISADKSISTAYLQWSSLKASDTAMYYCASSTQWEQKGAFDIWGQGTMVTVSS

B1: SHC1 SH2 domain (purified SHC1 antigen) (domain or fragment)
chain: WFHGKLSRREAEALLQLNGDFLVRESTTTPGQYVLTGLQSGQPKHLLLVDPEGVVRTKDHRFESVSHLISYHMDNHLPIISAGSELCLQQPV
For orientation: Kd means the free concentration of one partner at which half of the binding sites on the other are occupied at equilibrium, for simple one-to-one binding. The low end stands for tighter binding, the high end for weaker binding. In general, koff refers to a measure of how fast the partners let go of each other. B1: the Kd in experiment [1] turned out to be 25 nM. Also, in experiment [2], the fold improvement in affinity over 58 E05 came to 59 fold and the fold reduction in off-rate against 58 E05 is 3.2 fold. In experiment [3], the Kd is under 60 nM and the koff is under 0.1 s⁻¹.
